Source: PMC10062202

Substrate: CC(=O)O
Test: purified protein
Settings: 5 mM ATP, 2.5 mM CoA, 6 mM MgCl2, pH 7.5, 37 °C, His-tagged

B1: atACS (Arabidopsis acetyl-CoA synthetase) (Arabidopsis thaliana) (protein)
chain: ASEENDLVFPSKEFSGQALVSSPQQYMEMHKRSMDDPAAFWSDIASEFYWKQKWGDQVFSENLDVRKGPISIEWFKGGITNICYNCLDKNVEAGLGDKTAIHWEGNELGVDASLTYSELLQRVCQLANYLKDNGVKKGDAVVIYLPMLMELPIAMLACARIGAVHSVVFAGFSADSLAQRIVDCKPNVILTCNAVKRGPKTINLKAIVDAALDQSSKDGVSVGICLTYDNSLATTRENTKWQNGRDVWWQDVISQYPTSCEVEWVDAEDPLFLLYTSGSTGKPKGVLHTTGGYMIYTATTFKYAFDYKSTDVYWCTADCGWITGHSYVTYGPMLNGATVVVFEGAPNYPDPGRCWDIVDKYKVSIFYTAPTLVRSLMRDDDKFVTRHSRKSLRVLGSVGEPINPSAWRWFFNVVGDSRCPISDTWWQTETGGFMITPLPGAWPQKPGSATFPFFGVQPVIVDEKGNEIEGECSGYLCVKGSWPGAFRTLFGDHERYETTYFKPFAGYYFSGDGCSRDKDGYYWLTGRVDDVINVSGHRIGTAEVESALVLHPQCAEAAVVGIEHEVKGQGIYAFVTLLEGVPYSEELRKSLVLMVRNQIGAFAAPDRIHWAPGLPKTRSGKIMRRILRKIASRQLEELGDTSTLADPSVVDQLIALADV
Which results are given for B1?
Km: 180 ± 30 µM; kcat: 15.05 ± 0.65 s⁻¹
